The values that follow come from patent US20170189510A1.

Where only a bound is given, the exact number is not on record here.

B1: peptide SEQ ID No 274 … (peptide)
peptide: AYLHSHALI
B2: peptide SEQ ID No 216 … (peptide)
peptide: QYSSVFKSL
B3: peptide SEQ ID No 189 … (peptide)
peptide: WYVNGVNYF
B4: peptide SEQ ID No 177 … (peptide)
peptide: VYPWLGALL
B5: peptide SEQ ID No 283 … (peptide)
peptide: TYGDAGLTYTF
B6: peptide SEQ ID No 273 … (peptide)
peptide: TYIKPISKL
B7: peptide SEQ ID No 275 … (peptide)
peptide: EYINQGDLHEF
B8: peptide SEQ ID No 215 YFDKVVTL (peptide)
peptide: YFDKVVTL
B9: peptide SEQ ID No 192 … (peptide)
peptide: SYALLTYMI
B10: peptide SEQ ID No 221 … (peptide)
peptide: RYSTGLAGNLL
B11: peptide SEQ ID No 219 … (peptide)
peptide: EYPLVINTL
B12: peptide SEQ ID No 180 … (peptide)
peptide: IYDDSFIRPVTF
B13: peptide SEQ ID No 284 … (peptide)
peptide: RYLNKAFHI
B14: peptide SEQ ID No 183 … (peptide)
peptide: VFTSTARAF
B15: peptide SEQ ID No 166 … (peptide)
peptide: YYVESGKLF
B16: peptide SEQ ID No 169 … (peptide)
peptide: AYTLIAPNI
B17: peptide SEQ ID No 161 … (peptide)
peptide: IYLVSIPEL
B18: peptide SEQ ID No 162 … (peptide)
peptide: VFTRVSSFL
B19: peptide SEQ ID No 158 … (peptide)
peptide: HYSQELSLLYL
B20: peptide SEQ ID No 160 … (peptide)
peptide: VYTLDIPVL
B21: peptide SEQ ID No 184 … (peptide)
peptide: VFQNFPLLF
B22: peptide SEQ ID No 205 … (peptide)
peptide: VHIPEVYLI
B23: peptide SEQ ID No 271 … (peptide)
peptide: LYHDIFSRL
B24: peptide SEQ ID No 187 … (peptide)
peptide: TYLRDQHFL
B25: peptide SEQ ID No 224 … (peptide)
peptide: QYLENLEKL
B26: peptide SEQ ID No 193 … (peptide)
peptide: RFHPTPLLL
B27: peptide SEQ ID No 182 … (peptide)
peptide: IYQLDTASI
B28: peptide SEQ ID No 226 … (peptide)
peptide: VYRDETGELF
B29: peptide SEQ ID No 225 … (peptide)
peptide: YYVYIMNHL
B30: peptide SEQ ID No 272 … (peptide)
peptide: QYLQDAYSF
B31: peptide SEQ ID No 186 … (peptide)
peptide: IFPQFLYQF
B32: peptide SEQ ID No 223 … (peptide)
peptide: KYIPYKYVI
B33: peptide SEQ ID No 191 … (peptide)
peptide: VFKASKITF
B34: peptide SEQ ID No 167 … (peptide)
peptide: NYINRILKL
B35: peptide SEQ ID No 168 … (peptide)
peptide: KYQDILETI
B36: peptide SEQ ID No 210 … (peptide)
peptide: IYTMIYRNL
B37: peptide SEQ ID No 208 … (peptide)
peptide: TYTQDFNKF
B38: peptide SEQ ID No 280 … (peptide)
peptide: RYPDNLKHLYL
B39: peptide SEQ ID No 228 … (peptide)
peptide: KYTSWYVAL
B40: peptide SEQ ID No 276 … (peptide)
peptide: VYGFQWRHF
B41: peptide SEQ ID No 185 … (peptide)
peptide: IYKVGAPTI
B42: peptide SEQ ID No 198 … (peptide)
peptide: LYLDKATLI
B43: peptide SEQ ID No 159 … (peptide)
peptide: LYNKGFIYL
B44: peptide SEQ ID No 203 … (peptide)
peptide: FYSRLLQKF
B45: peptide SEQ ID No 164 … (peptide)
peptide: KFSSFSLFF
B46: peptide SEQ ID No 206 … (peptide)
peptide: EYQENFLSF
B47: peptide SEQ ID No 170 … (peptide)
peptide: VYEDQVGKF
B48: peptide SEQ ID No 227 … (peptide)
peptide: IFLDYEAGTLSF
B49: peptide SEQ ID No 181 … (peptide)
peptide: LYLDIINLF
B50: peptide SEQ ID No 163 … (peptide)
peptide: DYLKGLASF
B51: peptide SEQ ID No 282 … (peptide)
peptide: KFVDSTFYL
B52: peptide SEQ ID No 279 … (peptide)
peptide: TYIESASEL
B53: peptide SEQ ID No 289 … (peptide)
peptide: KYPVEWAKF
B54: peptide SEQ ID No 172 … (peptide)
peptide: TYTTVPRVAF
B55: peptide SEQ ID No 190 … (peptide)
peptide: GFFIFNERF
B56: peptide SEQ ID No 211 … (peptide)
peptide: YYLEVGKTLI
B57: peptide SEQ ID No 288 … (peptide)
peptide: VYVSDIQEL
B58: peptide SEQ ID No 179 … (peptide)
peptide: MYDSYWRQF
B59: peptide SEQ ID No 214 … (peptide)
peptide: LYLKLWNLI
B60: peptide SEQ ID No 217 … (peptide)
peptide: FFPPTRQMGLLF
B61: peptide SEQ ID No 188 RYFKGLVF (peptide)
peptide: RYFKGLVF
B62: peptide SEQ ID No 171 … (peptide)
peptide: LFIPSSKLLFL
B63: peptide SEQ ID No 194 … (peptide)
peptide: EFGSLHLEFL
B64: peptide SEQ ID No 165 … (peptide)
peptide: DYTTWTALL
B65: peptide SEQ ID No 178 … (peptide)
peptide: IFIEVFSHF
B66: peptide SEQ ID No 286 … (peptide)
peptide: RYPDNLKHL
B67: peptide SEQ ID No 267 … (peptide)
peptide: KYMVYPQTF
B68: peptide SEQ ID No 278 … (peptide)
peptide: RYISDQLFTNF

The experiment addresses HLA-A*24 (human). Put plainly: UV-ligand exchange, anti-b2m ELISA. On the technique in general: An ELISA detects its analyte on a solid surface through an enzyme-linked reagent.
The molecule B1 had a peptide exchange yield of over 75%. Molecule B2 gave a peptide exchange yield of over 75%. As for B3, the peptide exchange yield was in the range of 20 to 49%.

B4 came in with a peptide exchange yield of over 75%. B5 came in with a peptide exchange yield of 50 to 75%. Take B6: the peptide exchange yield was 50 to 75%.

On to B7, for which the peptide exchange yield fell in the range of 50 to 75%.

On to B8, for which the peptide exchange yield was 20 to 49%. In turn, B9 gave a peptide exchange yield of over 75%. Regarding B10, the peptide exchange yield lay in the range of 50 to 75%. B11 had a peptide exchange yield of 50 to 75%. B12 showed a peptide exchange yield of 50 to 75%. With B13, the peptide exchange yield was in the range of 50 to 75%. As to B14, the peptide exchange yield was in the range of 50 to 75%. For B15 the value was over 75%; for B16, 50 to 75%. For B17 the value was over 75%; for B18, 50 to 75%; for B19, over 75%. The molecule B20 yielded a peptide exchange yield of over 75%. B21 registered a peptide exchange yield of over 75%. For the molecule B22, the peptide exchange yield lay in the range of 50 to 75%. B23 came in with a peptide exchange yield of over 75%. For the molecule B24, the peptide exchange yield was over 75%. As to B25, the peptide exchange yield was 50 to 75%. In the case of B26, the peptide exchange yield was over 75%.

The molecule B27 had a peptide exchange yield of 50 to 75%. Under B28 stands 50 to 75%; under B29, 50 to 75%. As for B30, the peptide exchange yield was over 75%. In turn, B31 gave a peptide exchange yield of over 75%. Take B32: the peptide exchange yield is 50 to 75%. The molecule B33 registered a peptide exchange yield of 50 to 75%. For B34 the value was over 75%; for B35, over 75%; for B36, over 75%. For B37 the value was 50 to 75%; for B38, over 75%; for B39, over 75%.

Consider B40, for which the peptide exchange yield is over 75%. As for B41, the peptide exchange yield lay within 50 to 75%. The molecule B42 came in with a peptide exchange yield of 50 to 75%. The molecule B43 displayed a peptide exchange yield of over 75%. In turn, B44 gave a peptide exchange yield of 50 to 75%. Regarding B45, the peptide exchange yield lay within 50 to 75%. B46 had a peptide exchange yield of 50 to 75%. B47 displayed a peptide exchange yield of 20 to 49%. Molecule B48 gave a peptide exchange yield of over 75%. Under B49 stands over 75%; under B50, over 75%. As to B51, the peptide exchange yield is over 75%. B52: the peptide exchange yield was in the range of 50 to 75%. With B53, the peptide exchange yield was over 75%. Under B54 stands over 75%. Regarding B55, the peptide exchange yield fell in the range of 50 to 75%. Take B56: the peptide exchange yield is over 75%. The molecule B57 gave a peptide exchange yield of 50 to 75%.

Turning to B58, the peptide exchange yield is over 75%. For B59 the value was 50 to 75%; for B60, over 75%; for B61, 50 to 75%. For B62 the value was 50 to 75%; for B63, under 20%.

On to B64, for which the peptide exchange yield was over 75%. For B65 the value was 50 to 75%; for B66, 20 to 49%; for B67, over 75%.

Molecule B68 came in with a peptide exchange yield of over 75%.
